Assay results published in paper PMC11739650 (Communications Biology, 2025).
Where “and” joins values, the source holds several entries; their conditions need not be identical. Equal values may be shown once.

Target: the molecule itself
Assay: negative-stain electron microscopy

Row | Protein | binding result
1 | FliF(∆214–220) (natural protein, Salmonella enterica serovar Typhimurium) MSATASTATQPKPLEWLNRLRANPRIPLIVAGSAAVAIVVAMVLWAKTPDYRTLFSNLSDQDGGAIVAQLTQMNIPYRFANGSGAIEVPADKVHELRLRLAQQGLPKGGAVGFELLDQEKFGISQFSEQVNYQRALEGELARTIETLGPVKSARVHLAMPKPSLFVREQKSPSASVTVTLEPGRALDEGQISAVVHLVSSAVAGLPPGNVTLVTQSNTSGRDLNDAQLKFANDVESRIQRRIEAILSPIVGNGNVHAQVTAQLDFANKEQTEEHYSPNGDASKATLRSRQLNISEQVGAGYPGGVPGALSNQPAPPNEAPIATPPTNQQNAQNTPQTSTSTNSNSAGPRSTQRNETSNYEVDRTIRHTKMNVGDIERLSVAVVVNYKTLADGKPLPLTADQMKQIEDLTREAMGFSDKRGDTLNVVNSPFSAVDNTGGELPFWQQQSFIDQLLAAGRWLLVLVVAWILWRKAVRPQLTRRVEEAKAAQEQAQVRQETEEAVEVRLSKDEQLQQRRANQRLGAEVMSQRIREMSDNDPRVVALVIRQWMSNDHE | binds
2 | FliF(∆221–227) (natural protein, Salmonella enterica serovar Typhimurium) MSATASTATQPKPLEWLNRLRANPRIPLIVAGSAAVAIVVAMVLWAKTPDYRTLFSNLSDQDGGAIVAQLTQMNIPYRFANGSGAIEVPADKVHELRLRLAQQGLPKGGAVGFELLDQEKFGISQFSEQVNYQRALEGELARTIETLGPVKSARVHLAMPKPSLFVREQKSPSASVTVTLEPGRALDEGQISAVVHLVSSAVAGLPPGNVTLVDQSGHLLRDLNDAQLKFANDVESRIQRRIEAILSPIVGNGNVHAQVTAQLDFANKEQTEEHYSPNGDASKATLRSRQLNISEQVGAGYPGGVPGALSNQPAPPNEAPIATPPTNQQNAQNTPQTSTSTNSNSAGPRSTQRNETSNYEVDRTIRHTKMNVGDIERLSVAVVVNYKTLADGKPLPLTADQMKQIEDLTREAMGFSDKRGDTLNVVNSPFSAVDNTGGELPFWQQQSFIDQLLAAGRWLLVLVVAWILWRKAVRPQLTRRVEEAKAAQEQAQVRQETEEAVEVRLSKDEQLQQRRANQRLGAEVMSQRIREMSDNDPRVVALVIRQWMSNDHE | binds
3 | FliF(G217W) (natural protein, Salmonella enterica serovar Typhimurium) MSATASTATQPKPLEWLNRLRANPRIPLIVAGSAAVAIVVAMVLWAKTPDYRTLFSNLSDQDGGAIVAQLTQMNIPYRFANGSGAIEVPADKVHELRLRLAQQGLPKGGAVGFELLDQEKFGISQFSEQVNYQRALEGELARTIETLGPVKSARVHLAMPKPSLFVREQKSPSASVTVTLEPGRALDEGQISAVVHLVSSAVAGLPPGNVTLVDQSWHLLTQSNTSGRDLNDAQLKFANDVESRIQRRIEAILSPIVGNGNVHAQVTAQLDFANKEQTEEHYSPNGDASKATLRSRQLNISEQVGAGYPGGVPGALSNQPAPPNEAPIATPPTNQQNAQNTPQTSTSTNSNSAGPRSTQRNETSNYEVDRTIRHTKMNVGDIERLSVAVVVNYKTLADGKPLPLTADQMKQIEDLTREAMGFSDKRGDTLNVVNSPFSAVDNTGGELPFWQQQSFIDQLLAAGRWLLVLVVAWILWRKAVRPQLTRRVEEAKAAQEQAQVRQETEEAVEVRLSKDEQLQQRRANQRLGAEVMSQRIREMSDNDPRVVALVIRQWMSNDHE | binds
4 | FliF(G217P) (natural protein, Salmonella enterica serovar Typhimurium) MSATASTATQPKPLEWLNRLRANPRIPLIVAGSAAVAIVVAMVLWAKTPDYRTLFSNLSDQDGGAIVAQLTQMNIPYRFANGSGAIEVPADKVHELRLRLAQQGLPKGGAVGFELLDQEKFGISQFSEQVNYQRALEGELARTIETLGPVKSARVHLAMPKPSLFVREQKSPSASVTVTLEPGRALDEGQISAVVHLVSSAVAGLPPGNVTLVDQSPHLLTQSNTSGRDLNDAQLKFANDVESRIQRRIEAILSPIVGNGNVHAQVTAQLDFANKEQTEEHYSPNGDASKATLRSRQLNISEQVGAGYPGGVPGALSNQPAPPNEAPIATPPTNQQNAQNTPQTSTSTNSNSAGPRSTQRNETSNYEVDRTIRHTKMNVGDIERLSVAVVVNYKTLADGKPLPLTADQMKQIEDLTREAMGFSDKRGDTLNVVNSPFSAVDNTGGELPFWQQQSFIDQLLAAGRWLLVLVVAWILWRKAVRPQLTRRVEEAKAAQEQAQVRQETEEAVEVRLSKDEQLQQRRANQRLGAEVMSQRIREMSDNDPRVVALVIRQWMSNDHE | binds
5 | FliF(G217A) (natural protein, Salmonella enterica serovar Typhimurium) MSATASTATQPKPLEWLNRLRANPRIPLIVAGSAAVAIVVAMVLWAKTPDYRTLFSNLSDQDGGAIVAQLTQMNIPYRFANGSGAIEVPADKVHELRLRLAQQGLPKGGAVGFELLDQEKFGISQFSEQVNYQRALEGELARTIETLGPVKSARVHLAMPKPSLFVREQKSPSASVTVTLEPGRALDEGQISAVVHLVSSAVAGLPPGNVTLVDQSAHLLTQSNTSGRDLNDAQLKFANDVESRIQRRIEAILSPIVGNGNVHAQVTAQLDFANKEQTEEHYSPNGDASKATLRSRQLNISEQVGAGYPGGVPGALSNQPAPPNEAPIATPPTNQQNAQNTPQTSTSTNSNSAGPRSTQRNETSNYEVDRTIRHTKMNVGDIERLSVAVVVNYKTLADGKPLPLTADQMKQIEDLTREAMGFSDKRGDTLNVVNSPFSAVDNTGGELPFWQQQSFIDQLLAAGRWLLVLVVAWILWRKAVRPQLTRRVEEAKAAQEQAQVRQETEEAVEVRLSKDEQLQQRRANQRLGAEVMSQRIREMSDNDPRVVALVIRQWMSNDHE | binds
6 | FliF(∆165–167) (natural protein, Salmonella enterica serovar Typhimurium) MSATASTATQPKPLEWLNRLRANPRIPLIVAGSAAVAIVVAMVLWAKTPDYRTLFSNLSDQDGGAIVAQLTQMNIPYRFANGSGAIEVPADKVHELRLRLAQQGLPKGGAVGFELLDQEKFGISQFSEQVNYQRALEGELARTIETLGPVKSARVHLAMPKPSLEQKSPSASVTVTLEPGRALDEGQISAVVHLVSSAVAGLPPGNVTLVDQSGHLLTQSNTSGRDLNDAQLKFANDVESRIQRRIEAILSPIVGNGNVHAQVTAQLDFANKEQTEEHYSPNGDASKATLRSRQLNISEQVGAGYPGGVPGALSNQPAPPNEAPIATPPTNQQNAQNTPQTSTSTNSNSAGPRSTQRNETSNYEVDRTIRHTKMNVGDIERLSVAVVVNYKTLADGKPLPLTADQMKQIEDLTREAMGFSDKRGDTLNVVNSPFSAVDNTGGELPFWQQQSFIDQLLAAGRWLLVLVVAWILWRKAVRPQLTRRVEEAKAAQEQAQVRQETEEAVEVRLSKDEQLQQRRANQRLGAEVMSQRIREMSDNDPRVVALVIRQWMSNDHE | binds

Target: the molecule itself
Assay: cryo-EM structure

Row | Protein | stoichiometry N
7 | FliF (flagellar MS-ring protein), wild type (natural protein, Salmonella enterica serovar Typhimurium, UniProt P15928 1-560, looked up) MSATASTATQPKPLEWLNRLRANPRIPLIVAGSAAVAIVVAMVLWAKTPDYRTLFSNLSDQDGGAIVAQLTQMNIPYRFANGSGAIEVPADKVHELRLRLAQQGLPKGGAVGFELLDQEKFGISQFSEQVNYQRALEGELARTIETLGPVKSARVHLAMPKPSLFVREQKSPSASVTVTLEPGRALDEGQISAVVHLVSSAVAGLPPGNVTLVDQSGHLLTQSNTSGRDLNDAQLKFANDVESRIQRRIEAILSPIVGNGNVHAQVTAQLDFANKEQTEEHYSPNGDASKATLRSRQLNISEQVGAGYPGGVPGALSNQPAPPNEAPIATPPTNQQNAQNTPQTSTSTNSNSAGPRSTQRNETSNYEVDRTIRHTKMNVGDIERLSVAVVVNYKTLADGKPLPLTADQMKQIEDLTREAMGFSDKRGDTLNVVNSPFSAVDNTGGELPFWQQQSFIDQLLAAGRWLLVLVVAWILWRKAVRPQLTRRVEEAKAAQEQAQVRQETEEAVEVRLSKDEQLQQRRANQRLGAEVMSQRIREMSDNDPRVVALVIRQWMSNDHE | 33 and 34
